The values that follow come from publication PMC11329518.

Test in all cases: fluorescence polarisation
On the technique in general: In fluorescence polarisation assays a small probe gives low polarisation when free and higher when bound to something large.

The target in test [1] is 5'FAM-labeled peptide H3K9me2.
Test [2] concerns the target 5'FAM-labeled peptide H3 (1-21).
In test [3] the target is 5'FAM-labeled peptide H3K9me1.

B1: GST-ARID1-His (natural protein)
chain: MAGWSMVADEDAVDYSKTPKSLDANRSPESVNPESTGFEKKIKELISLFRPLLDSFLAEFCSADGFLPLPAMTGEGRTVDLFNLFLNVTHKGGFDAVSENGSWDEVVQESGLESYDSASAKLIYVKYLDAFGRWLNRVVAGDTDVSSVELSGISDALVARLNGFLSEVKKKYELRKGRPAKELGAELKWFISKTKRRYDKHHVGKESASNDAVKEFQGSKLAERRLEQIMILESVTQECSSPGKRKRECPLETLKWLSDVAKDPCDPSLGIVPDRSEWVSYGSEEPWKQLLLFRASRTNNDSACEKTWQKVQKMHPCLYDDSAGASYNLRERLSYEDYKRGKTGNGSDIGSSDEEDRPCALVGSKFQAKVPEWTGITPESDSKWLGTRIWPLTKEQTKANLLIERDRIGKGRQDPCGCHNPGSIECVKFHITAKRDKLKLELGPAFYMWCFDVMGECTLQYWTDLELKKIKSLMSSPPSLSPAFIHQAKMILPSKSRGKIVSYFYNVTLLQYRASQSRITPHDIDSDTDQIFLRATENENPAPEANTFQKPALLSPNKKRCR
With B1, the Kd (in general, the concentration at which binding is half-saturated) in test [1] turned out to be 40.5 µM; in test [2] it was 4.73 µM; in test [3], 21.2 µM.
